Source: patent US20160264649A1

Tests used:
Experiment in all cases: cell-based or functional assay
[1] = molecular target: HIV-1 MGRM-AG-009 Env (HIV-1)
[2] = molecular target: HIV-1 MGRM-A-008 Env (HIV-1)
[3] = molecular target: HIV-1 94UG103 Env (HIV-1)
[4] = molecular target: HIV-1 MGRM-AE-001 Env (HIV-1)
[5] = molecular target: HIV-1 93WR029 Env (HIV-1)
[6] = molecular target: HIV-1 92UG031 Env (HIV-1)
[7] = molecular target: HIV-1 MGRM-A-004 Env (HIV-1)
[8] = molecular target: HIV-1 MGRM-AE-004 Env (HIV-1)
[9] = molecular target: HIV-1 MGRM-AE-006 Env (HIV-1)
[10] = molecular target: HIV-1 MGRM-AG-011 Env (HIV-1)
[11] = molecular target: HIV-1 MGRM-AE-008 Env (HIV-1)
[12] = molecular target: HIV-1 MGRM-A-011 Env (HIV-1)
[13] = molecular target: HIV-1 MGRM-AE-002 Env (HIV-1)
[14] = molecular target: HIV-1 MGRM-A-001 Env (HIV-1)
[15] = molecular target: HIV-1 MGRM-A-010 Env (HIV-1)
HIV-1 CMU02 Env (HIV-1) = molecular target: HIV-1 CMU02 Env (HIV-1)
[16] = molecular target: HIV-1 92RW008 Env (HIV-1)
[17] = molecular target: HIV-1 92WR021 Env (HIV-1)
[18] = molecular target: HIV-1 MGRM-AE-003 Env (HIV-1)
HIV-1 VLGCA1 Env (HIV-1) = molecular target: HIV-1 VLGCA1 Env (HIV-1)
[19] = molecular target: HIV-1 MGRM-AG-002 Env (HIV-1)
[20] = molecular target: HIV-1 MGRM-A-006 Env (HIV-1)
[21] = molecular target: HIV-1 92WR020 Env (HIV-1)
[22] = molecular target: HIV-1 MGRM-A-014 Env (HIV-1)
[23] = molecular target: HIV-1 MGRM-A-005 Env (HIV-1)
[24] = molecular target: HIV-1 MGRM-AE-007 Env (HIV-1)
[25] = molecular target: HIV-1 MGRM-AG-012 Env (HIV-1)
[26] = molecular target: HIV-1 MGRM-A-013 Env (HIV-1)
[27] = molecular target: HIV-1 94KE105 Env (HIV-1)
[28] = molecular target: HIV-1 92TH021 Env (HIV-1)
[29] = molecular target: HIV-1 93UG077 Env (HIV-1)
[30] = molecular target: HIV-1 MGRM-A-009 Env (HIV-1)
[31] = molecular target: HIV-1 92UG037 Env (HIV-1)
[32] = molecular target: HIV-1 MGRM-A-012 Env (HIV-1)
[33] = molecular target: HIV-1 92WR009 Env (HIV-1)
[34] = molecular target: HIV-1 92WR024 Env (HIV-1)
[35] = molecular target: HIV-1 MGRM-A-007 Env (HIV-1)
[36] = molecular target: HIV-1 MGRM-AE-005 Env (HIV-1)
[37] = molecular target: HIV-1 MGRM-A-003 Env (HIV-1)
[38] = molecular target: HIV-1 MGRM-A-002 Env (HIV-1)
[39] = molecular target: HIV-1 MGRM-AG-001 Env (HIV-1)
[40] = molecular target: HIV-1 92WR026 Env (HIV-1)
[41] = molecular target: HIV-1 MGRM-AG-008 Env (HIV-1)
[42] = molecular target: HIV-1 MGRM-AG-005 Env (HIV-1)
[43] = molecular target: HIV-1 MGRM-AG-013 Env (HIV-1)
[44] = molecular target: HIV-1 MGRM-AG-003 Env (HIV-1)
[45] = molecular target: HIV-1 MGRM-AG-006 Env (HIV-1)

4838_L06 (PGT-121) (antibody)
IC50 [1]: 0.08 µg/mL | IC50 [2]: > 50 µg/mL | IC50 [3]: 2.52 µg/mL | IC50 [4]: > 50 µg/mL | IC50 [5]: > 50 µg/mL | IC50 [6]: > 50 µg/mL | IC50 [7]: > 50 µg/mL | IC50 [8]: > 50 µg/mL | IC50 [9]: > 50 µg/mL | IC50 [10]: > 50 µg/mL | IC50 [11]: > 50 µg/mL | IC50 [12]: > 50 µg/mL | IC50 [13]: > 50 µg/mL | IC50 [14]: > 50 µg/mL | IC50 [15]: 2.44 µg/mL | IC50 (HIV-1 CMU02 Env (HIV-1)): > 50 µg/mL | IC50 [16]: 0.003 µg/mL | IC50 [17]: 0.009 µg/mL | IC50 [18]: > 50 µg/mL | IC50 (HIV-1 VLGCA1 Env (HIV-1)): > 50 µg/mL | IC50 [19]: > 50 µg/mL | IC50 [20]: 0.396 µg/mL | IC50 [21]: 0.004 µg/mL | IC50 [22]: 0.003 µg/mL | IC50 [23]: > 50 µg/mL | IC50 [24]: > 50 µg/mL | IC50 [25]: > 50 µg/mL | IC50 [26]: 0.387 µg/mL | IC50 [27]: 0.029 µg/mL | IC50 [28]: > 50 µg/mL | IC50 [29]: 0.019 µg/mL | IC50 [30]: 0.006 µg/mL | IC50 [31]: 0.031 µg/mL | IC50 [32]: 0.092 µg/mL | IC50 [33]: 1.74 µg/mL | IC50 [34]: > 50 µg/mL | IC50 [35]: > 50 µg/mL | IC50 [36]: > 50 µg/mL | IC50 [37]: 0.435 µg/mL

4858_P08 (PGT-123) (antibody)
IC50 [38]: 0.011 µg/mL | IC50 [1]: 0.073 µg/mL | IC50 [2]: > 50 µg/mL | IC50 [3]: 0.678 µg/mL | IC50 [4]: > 50 µg/mL | IC50 [5]: > 50 µg/mL | IC50 [6]: > 50 µg/mL | IC50 [7]: > 50 µg/mL | IC50 [8]: > 50 µg/mL | IC50 [9]: > 50 µg/mL | IC50 [10]: > 50 µg/mL | IC50 [11]: > 50 µg/mL | IC50 [39]: 2.51 µg/mL | IC50 [12]: > 50 µg/mL | IC50 [13]: > 50 µg/mL | IC50 [14]: > 50 µg/mL | IC50 [15]: 0.705 µg/mL | IC50 (HIV-1 CMU02 Env (HIV-1)): > 50 µg/mL | IC50 [16]: 0.003 µg/mL | IC50 [40]: 0.012 µg/mL | IC50 [17]: 0.005 µg/mL | IC50 [18]: > 50 µg/mL | IC50 (HIV-1 VLGCA1 Env (HIV-1)): > 50 µg/mL | IC50 [41]: 19.2 µg/mL | IC50 [19]: > 50 µg/mL | IC50 [42]: 0.149 µg/mL | IC50 [43]: 3.37 µg/mL | IC50 [20]: > 50 µg/mL | IC50 [44]: > 50 µg/mL | IC50 [21]: 0.002 µg/mL | IC50 [22]: 0.003 µg/mL | IC50 [23]: > 50 µg/mL | IC50 [24]: > 50 µg/mL | IC50 [25]: > 50 µg/mL | IC50 [26]: 0.565 µg/mL | IC50 [27]: 0.024 µg/mL | IC50 [28]: > 50 µg/mL | IC50 [45]: 0.014 µg/mL | IC50 [29]: 0.028 µg/mL | IC50 [30]: 0.004 µg/mL | IC50 [31]: 0.023 µg/mL | IC50 [32]: 0.192 µg/mL | IC50 [33]: 15.7 µg/mL | IC50 [34]: > 50 µg/mL | IC50 [35]: > 50 µg/mL | IC50 [36]: > 50 µg/mL | IC50 [37]: 0.495 µg/mL

5145_B14 (PGT-127) (antibody)
IC50 [38]: 9.42 µg/mL | IC50 [1]: 0.059 µg/mL | IC50 [2]: > 50 µg/mL | IC50 [3]: 0.017 µg/mL | IC50 [4]: > 50 µg/mL | IC50 [5]: > 50 µg/mL | IC50 [6]: > 50 µg/mL | IC50 [7]: > 50 µg/mL | IC50 [8]: > 50 µg/mL | IC50 [9]: > 50 µg/mL | IC50 [10]: > 50 µg/mL | IC50 [11]: > 50 µg/mL | IC50 [39]: > 50 µg/mL | IC50 [12]: > 50 µg/mL | IC50 [13]: > 50 µg/mL | IC50 [14]: > 50 µg/mL | IC50 [15]: 0.017 µg/mL | IC50 (HIV-1 CMU02 Env (HIV-1)): > 50 µg/mL | IC50 [16]: 0.012 µg/mL | IC50 [40]: 0.024 µg/mL | IC50 [17]: 0.011 µg/mL | IC50 [18]: > 50 µg/mL | IC50 (HIV-1 VLGCA1 Env (HIV-1)): > 50 µg/mL | IC50 [41]: > 50 µg/mL | IC50 [19]: > 50 µg/mL | IC50 [42]: > 50 µg/mL | IC50 [43]: 0.018 µg/mL | IC50 [20]: > 50 µg/mL | IC50 [44]: > 50 µg/mL | IC50 [21]: 0.01 µg/mL | IC50 [22]: 0.24 µg/mL | IC50 [23]: > 50 µg/mL | IC50 [24]: > 50 µg/mL | IC50 [25]: > 50 µg/mL | IC50 [26]: 0.029 µg/mL | IC50 [27]: 0.023 µg/mL | IC50 [28]: > 50 µg/mL | IC50 [45]: 0.021 µg/mL | IC50 [29]: 0.055 µg/mL | IC50 [30]: 0.013 µg/mL | IC50 [31]: 0.014 µg/mL | IC50 [32]: 0.105 µg/mL | IC50 [33]: > 50 µg/mL | IC50 [34]: > 50 µg/mL | IC50 [35]: > 50 µg/mL | IC50 [36]: > 50 µg/mL | IC50 [37]: > 50 µg/mL
